Reference: patent US10869832B2, “Substance delivery device and substance delivery method using the same” (priority 2013, dated 2020)

System: OVA-specific IgG
Test: OVA-specific IgG by ELISA after single-dose immunization
Type: in vivo
Settings: SD rats, two weeks after injection, single dose (IM 500 μg OVA, MN 200 μg OVA)
Procedure: 4-week-old SD rats are divided into four groups. Rats of the first three groups are injected with saline, OVA, and chitosan hydrogel loaded with OVA by intramuscular inoculation, respectively. The fourth group is administrated with OVA through the microneedle patch of the present embodiment. In detail, the SD rat is weighed, anesthetized, and shaved. 200 μl of saline is injected into the thigh of each SD rat of the first group (“IM saline” group). 500 μg of OVA in the same volume are injected into the thigh of each SD rat of the second group (“IM-OVA” group). 200 μl of chitosan hydrogel loaded with 500 μg of OVA (mixed in the same ratio as the microneedle patch) are injected into the thigh of each SD rat of the third group (“IM-OVA+CS” group). A microneedle patch encapsulating 200 μg of OVA is applied the each SD rat of the fourth group (“MN-OVA” group). The blood of each SD rat of each group sampled at the 0, 2nd and 4th week after injection is centrifuged for 5 minutes at 3000 rpm to separate serum from blood cells in the plasma. IgG levels in the collected serum are then evaluated by ELISA.

B1: IM-OVA: 500 μg of OVA (ovalbumin) injected intramuscularly (protein, UniProt P01012 2-386, looked up)
Ovalbumin: GSIGAASMEFCFDVFKELKVHHANENIFYCPIAIMSALAMVYLGAKDSTRTQINKVVRFDKLPGFGDSIEAQCGTSVNVHSSLRDILNQITKPNDVYSFSLASRLYAEERYPILPEYLQCVKELYRGGLEPINFQTAADQARELINSWVESQTNGIIRNVLQPSSVDSQTAMVLVNAIVFKGLWEKAFKDEDTQAMPFRVTEQESKPVQMMYQIGLFRVASMASEKMKILELPFASGTMSMLVLLPDEVSGLEQLESIINFEKLTEWTSSNVMEERKIKVYLPRMKMEEKYNLTSVLMAMGITDVFSSSANLSGISSAESLKISQAVHAAHAEINEAGREVVGSAEAGVDAASVSEEFRADHPFLFCIKHIATNAVLFFGRCVSP
OVA-specific IgG level: much lower than the MN-OVA and IM-OVA+CS group
